Experimental data: patent US20150064134A1

What was measured:
Experiment in all cases: cell-based or functional assay
MST1(h) (human) = molecular target: T1, MST1(h) (human) (UniProt Q13043)
T1 sequence (looked up): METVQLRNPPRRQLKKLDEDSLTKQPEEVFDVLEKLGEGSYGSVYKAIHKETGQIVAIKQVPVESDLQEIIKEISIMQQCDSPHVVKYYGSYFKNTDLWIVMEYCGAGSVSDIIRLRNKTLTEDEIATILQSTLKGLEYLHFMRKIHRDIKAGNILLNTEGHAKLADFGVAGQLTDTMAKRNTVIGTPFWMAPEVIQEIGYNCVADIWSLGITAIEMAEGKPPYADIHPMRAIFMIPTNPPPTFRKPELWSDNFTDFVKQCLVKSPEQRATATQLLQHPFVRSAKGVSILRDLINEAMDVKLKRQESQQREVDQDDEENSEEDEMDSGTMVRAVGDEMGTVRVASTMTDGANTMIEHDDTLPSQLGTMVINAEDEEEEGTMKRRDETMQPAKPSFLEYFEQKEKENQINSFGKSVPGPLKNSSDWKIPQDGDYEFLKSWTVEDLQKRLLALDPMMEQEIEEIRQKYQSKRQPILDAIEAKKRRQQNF

[1] = molecular target: CDK7/cyclinH/MAT1(h) (human) (UniProt P50613)
SGK2(h) (human) = molecular target: T2, SGK2(h) (human) (UniProt Q9HBY8)
T2 sequence (looked up): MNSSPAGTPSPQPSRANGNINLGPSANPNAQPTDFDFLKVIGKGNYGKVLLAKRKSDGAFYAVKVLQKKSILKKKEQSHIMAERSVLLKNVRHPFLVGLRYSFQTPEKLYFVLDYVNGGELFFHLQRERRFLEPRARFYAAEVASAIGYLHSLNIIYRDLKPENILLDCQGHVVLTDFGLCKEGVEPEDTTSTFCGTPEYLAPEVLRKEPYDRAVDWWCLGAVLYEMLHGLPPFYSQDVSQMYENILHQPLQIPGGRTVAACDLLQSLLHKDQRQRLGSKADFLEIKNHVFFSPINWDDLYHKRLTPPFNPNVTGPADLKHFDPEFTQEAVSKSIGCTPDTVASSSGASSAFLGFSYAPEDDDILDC

cKit(D816H)(h) (human) = cKit(D816H)(h) (human) (UniProt P10721)
Rse(h) (human) = molecular target: T3, Rse(h) (human) (UniProt Q06418)
T3 sequence (looked up): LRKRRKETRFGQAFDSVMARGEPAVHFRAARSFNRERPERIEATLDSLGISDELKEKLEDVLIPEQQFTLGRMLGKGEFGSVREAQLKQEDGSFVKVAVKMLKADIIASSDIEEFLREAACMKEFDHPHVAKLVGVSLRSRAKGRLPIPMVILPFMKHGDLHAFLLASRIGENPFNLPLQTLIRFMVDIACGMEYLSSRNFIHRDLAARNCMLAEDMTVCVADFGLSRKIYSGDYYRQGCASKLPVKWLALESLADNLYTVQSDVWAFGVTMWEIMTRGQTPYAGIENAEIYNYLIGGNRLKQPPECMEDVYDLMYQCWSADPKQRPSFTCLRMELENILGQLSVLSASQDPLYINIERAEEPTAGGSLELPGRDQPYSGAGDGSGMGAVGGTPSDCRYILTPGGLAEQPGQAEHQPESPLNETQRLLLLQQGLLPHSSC

CLK3(h) (human) = CLK3(h) (human) (UniProt P49761)
mTOR(h) (human) = mTOR(h) (human) (UniProt P42345)
Tec(h) activated (human) = molecular target: T4, Tec(h) activated (human) (UniProt P42680)
T4 sequence (looked up): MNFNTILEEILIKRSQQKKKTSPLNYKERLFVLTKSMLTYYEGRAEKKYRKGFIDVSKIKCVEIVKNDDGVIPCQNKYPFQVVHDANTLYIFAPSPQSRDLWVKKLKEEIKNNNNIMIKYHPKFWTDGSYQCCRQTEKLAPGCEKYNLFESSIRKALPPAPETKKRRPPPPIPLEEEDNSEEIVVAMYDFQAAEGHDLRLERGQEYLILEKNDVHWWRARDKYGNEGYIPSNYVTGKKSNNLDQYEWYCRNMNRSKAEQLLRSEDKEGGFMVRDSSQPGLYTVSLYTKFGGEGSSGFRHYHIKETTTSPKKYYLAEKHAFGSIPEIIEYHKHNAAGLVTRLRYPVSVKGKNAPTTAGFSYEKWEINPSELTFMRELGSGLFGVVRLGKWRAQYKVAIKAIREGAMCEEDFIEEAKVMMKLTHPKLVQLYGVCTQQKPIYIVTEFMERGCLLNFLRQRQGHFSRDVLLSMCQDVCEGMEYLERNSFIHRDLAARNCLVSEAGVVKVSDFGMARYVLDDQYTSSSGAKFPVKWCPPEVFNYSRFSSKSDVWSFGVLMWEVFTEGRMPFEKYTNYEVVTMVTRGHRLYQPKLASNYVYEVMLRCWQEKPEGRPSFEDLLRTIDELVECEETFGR

DDR2(h) (human) = molecular target: T5, DDR2(h) (human) (UniProt Q16832)
T5 sequence (looked up): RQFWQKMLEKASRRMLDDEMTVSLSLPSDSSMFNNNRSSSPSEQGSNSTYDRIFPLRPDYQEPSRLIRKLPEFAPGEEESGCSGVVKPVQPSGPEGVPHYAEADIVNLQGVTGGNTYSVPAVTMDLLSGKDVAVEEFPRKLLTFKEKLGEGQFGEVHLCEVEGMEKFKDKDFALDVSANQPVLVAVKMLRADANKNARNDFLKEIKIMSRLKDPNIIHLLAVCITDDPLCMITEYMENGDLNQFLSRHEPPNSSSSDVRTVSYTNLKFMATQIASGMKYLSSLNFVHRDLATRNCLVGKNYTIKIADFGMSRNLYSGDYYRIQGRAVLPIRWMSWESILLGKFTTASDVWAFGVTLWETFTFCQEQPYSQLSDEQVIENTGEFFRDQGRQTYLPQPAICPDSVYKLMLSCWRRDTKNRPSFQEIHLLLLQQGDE

WNK3(h) (human) = WNK3(h) (human) (UniProt Q9BYP7)
CaMKIIγ(h) (human) = CaMKIIγ(h) (human) (UniProt Q13555)
PDGFRβ(h) (human) = PDGFRβ(h) (human) (UniProt P09619)
PDGFRβ(h) (human), sequence (P09619 557-1106 limits assumed): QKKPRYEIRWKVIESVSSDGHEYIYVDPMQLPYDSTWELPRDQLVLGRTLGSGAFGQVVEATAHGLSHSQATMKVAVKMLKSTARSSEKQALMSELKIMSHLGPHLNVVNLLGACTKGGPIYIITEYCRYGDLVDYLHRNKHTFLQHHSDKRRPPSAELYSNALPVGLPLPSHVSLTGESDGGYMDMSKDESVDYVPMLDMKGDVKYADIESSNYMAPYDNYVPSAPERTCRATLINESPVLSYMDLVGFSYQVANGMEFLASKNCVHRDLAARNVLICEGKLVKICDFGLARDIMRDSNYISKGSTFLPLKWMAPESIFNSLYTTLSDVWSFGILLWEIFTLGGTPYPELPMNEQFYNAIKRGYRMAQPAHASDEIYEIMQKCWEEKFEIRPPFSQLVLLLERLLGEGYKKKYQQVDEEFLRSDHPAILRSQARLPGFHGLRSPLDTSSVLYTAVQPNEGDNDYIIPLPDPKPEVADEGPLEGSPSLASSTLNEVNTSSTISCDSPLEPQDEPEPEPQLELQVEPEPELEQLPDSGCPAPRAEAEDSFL

CDK7/cyclinH/MAT1(h) (human), sequence (P50613 whole entry, chain 1 of 3): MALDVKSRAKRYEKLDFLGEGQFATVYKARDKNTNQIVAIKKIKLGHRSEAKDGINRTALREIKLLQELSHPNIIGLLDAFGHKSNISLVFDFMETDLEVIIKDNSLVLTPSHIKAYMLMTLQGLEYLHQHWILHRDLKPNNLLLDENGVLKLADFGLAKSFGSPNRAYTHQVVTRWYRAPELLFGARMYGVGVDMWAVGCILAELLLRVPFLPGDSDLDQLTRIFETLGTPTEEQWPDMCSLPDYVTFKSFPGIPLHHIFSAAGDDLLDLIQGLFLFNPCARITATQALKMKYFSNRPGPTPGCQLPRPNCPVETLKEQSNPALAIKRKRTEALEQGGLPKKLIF
CDK7/cyclinH/MAT1(h) (human), sequence (P51946 whole entry, chain 2 of 3, further chain): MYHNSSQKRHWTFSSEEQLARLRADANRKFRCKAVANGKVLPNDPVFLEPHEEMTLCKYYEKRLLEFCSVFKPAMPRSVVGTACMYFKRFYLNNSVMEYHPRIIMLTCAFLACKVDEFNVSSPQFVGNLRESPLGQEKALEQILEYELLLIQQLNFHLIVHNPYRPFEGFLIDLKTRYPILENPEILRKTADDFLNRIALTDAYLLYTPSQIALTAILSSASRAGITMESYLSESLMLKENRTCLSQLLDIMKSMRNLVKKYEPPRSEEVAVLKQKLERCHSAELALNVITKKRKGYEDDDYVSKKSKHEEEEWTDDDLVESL
CDK7/cyclinH/MAT1(h) (human), sequence (P51948 whole entry, chain 3 of 3, further chain): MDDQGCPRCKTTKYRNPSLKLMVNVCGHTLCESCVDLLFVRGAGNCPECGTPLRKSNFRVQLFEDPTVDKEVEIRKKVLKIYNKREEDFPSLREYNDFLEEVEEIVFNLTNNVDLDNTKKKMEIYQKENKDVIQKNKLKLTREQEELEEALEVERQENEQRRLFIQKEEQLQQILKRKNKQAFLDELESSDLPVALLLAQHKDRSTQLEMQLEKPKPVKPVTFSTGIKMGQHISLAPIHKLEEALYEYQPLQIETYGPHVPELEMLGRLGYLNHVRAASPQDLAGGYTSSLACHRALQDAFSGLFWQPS
mTOR(h) (human), sequence (P42345 1362-2549 limits assumed): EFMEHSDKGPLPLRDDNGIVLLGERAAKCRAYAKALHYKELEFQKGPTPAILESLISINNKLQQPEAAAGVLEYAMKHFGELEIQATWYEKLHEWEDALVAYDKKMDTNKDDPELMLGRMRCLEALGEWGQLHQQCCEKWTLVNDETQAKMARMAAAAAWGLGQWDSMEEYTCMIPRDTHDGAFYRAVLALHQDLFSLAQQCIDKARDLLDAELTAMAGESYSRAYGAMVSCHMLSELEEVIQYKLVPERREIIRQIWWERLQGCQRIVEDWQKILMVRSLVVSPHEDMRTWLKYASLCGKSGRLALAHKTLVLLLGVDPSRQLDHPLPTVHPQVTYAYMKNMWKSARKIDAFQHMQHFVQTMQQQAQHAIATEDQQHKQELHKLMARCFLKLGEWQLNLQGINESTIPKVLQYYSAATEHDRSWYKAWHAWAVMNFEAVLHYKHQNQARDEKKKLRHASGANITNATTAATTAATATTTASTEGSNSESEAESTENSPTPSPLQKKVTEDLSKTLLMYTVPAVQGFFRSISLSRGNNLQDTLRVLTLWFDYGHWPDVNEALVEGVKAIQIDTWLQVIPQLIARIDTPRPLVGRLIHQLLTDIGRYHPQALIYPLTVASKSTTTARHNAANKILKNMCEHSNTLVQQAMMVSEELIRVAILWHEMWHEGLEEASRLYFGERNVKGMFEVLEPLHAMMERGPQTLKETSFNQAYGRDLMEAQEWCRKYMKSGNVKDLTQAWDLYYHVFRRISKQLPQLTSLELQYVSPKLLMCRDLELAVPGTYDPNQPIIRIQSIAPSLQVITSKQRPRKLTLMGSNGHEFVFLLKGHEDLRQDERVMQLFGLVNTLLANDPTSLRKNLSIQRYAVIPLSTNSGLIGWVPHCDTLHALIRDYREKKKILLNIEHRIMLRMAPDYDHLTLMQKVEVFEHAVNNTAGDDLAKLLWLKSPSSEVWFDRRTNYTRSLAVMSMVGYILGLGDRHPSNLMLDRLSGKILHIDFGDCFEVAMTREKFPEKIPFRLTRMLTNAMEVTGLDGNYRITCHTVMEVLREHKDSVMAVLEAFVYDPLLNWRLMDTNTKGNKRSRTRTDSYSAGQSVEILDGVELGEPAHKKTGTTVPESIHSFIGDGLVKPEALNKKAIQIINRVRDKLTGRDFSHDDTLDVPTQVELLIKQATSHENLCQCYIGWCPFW
cKit(D816H)(h) (human), sequence (P10721 544-976 D816H): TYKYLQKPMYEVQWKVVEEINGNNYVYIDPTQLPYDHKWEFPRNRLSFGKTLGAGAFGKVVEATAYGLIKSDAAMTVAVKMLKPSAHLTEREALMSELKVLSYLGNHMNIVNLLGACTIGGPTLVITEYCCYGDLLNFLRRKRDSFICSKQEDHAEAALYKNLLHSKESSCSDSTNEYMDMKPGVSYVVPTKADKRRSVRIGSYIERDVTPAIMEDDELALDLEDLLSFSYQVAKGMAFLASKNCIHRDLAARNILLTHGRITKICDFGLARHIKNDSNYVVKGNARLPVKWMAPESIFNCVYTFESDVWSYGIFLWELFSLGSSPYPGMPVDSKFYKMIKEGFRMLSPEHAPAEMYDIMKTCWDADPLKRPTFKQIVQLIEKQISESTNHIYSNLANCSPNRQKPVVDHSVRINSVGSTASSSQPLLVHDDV
CaMKIIγ(h) (human), sequence (Q13555 whole entry): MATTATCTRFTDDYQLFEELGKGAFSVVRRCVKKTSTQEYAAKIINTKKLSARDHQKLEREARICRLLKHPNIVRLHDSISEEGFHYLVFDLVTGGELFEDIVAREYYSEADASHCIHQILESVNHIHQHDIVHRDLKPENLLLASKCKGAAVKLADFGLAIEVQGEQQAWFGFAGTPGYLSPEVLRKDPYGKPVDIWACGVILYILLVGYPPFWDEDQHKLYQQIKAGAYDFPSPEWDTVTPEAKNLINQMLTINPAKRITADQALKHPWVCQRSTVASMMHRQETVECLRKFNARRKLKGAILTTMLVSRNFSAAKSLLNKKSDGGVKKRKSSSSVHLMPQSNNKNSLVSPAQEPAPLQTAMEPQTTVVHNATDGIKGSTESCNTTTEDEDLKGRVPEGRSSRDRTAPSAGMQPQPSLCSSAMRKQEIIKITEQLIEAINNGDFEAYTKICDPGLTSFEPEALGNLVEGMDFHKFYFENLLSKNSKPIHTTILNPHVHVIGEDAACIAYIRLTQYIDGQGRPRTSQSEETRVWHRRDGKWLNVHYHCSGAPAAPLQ

Substance	% activity at 100 µM (MST1(h) (human)) [%]	% activity at 100 µM [1] [%]	% activity at 100 µM (SGK2(h) (human)) [%]	% activity at 100 µM (cKit(D816H)(h) (human)) [%]	% activity at 100 µM (Rse(h) (human)) [%]	% activity at 100 µM (CLK3(h) (human)) [%]	% activity at 100 µM (mTOR(h) (human)) [%]	% activity at 100 µM (Tec(h) activated (human)) [%]	% activity at 100 µM (DDR2(h) (human)) [%]	% activity at 100 µM (WNK3(h) (human)) [%]	% activity at 100 µM (CaMKIIγ(h) (human)) [%]	% activity at 100 µM (PDGFRβ(h) (human)) [%]
MMI-0300 (peptide)	14	65	56	126	88	61	91	56	94	77	5	81
MMI-0400 (peptide)	6	47	98	143	89	84	93	29	95	74	3	53
MMI-0500 (peptide)	3	15	-1	194	63	76	135	33	79	9	3	40
